Experimental data reported in paper PMC6393559.

Target: Adnectin C-PAS#1(200)
Experiment: SPR; Biacore X100, 25 °C, HBS-EP buffer pH 7.4, CM5 chip; His-tagged Adnectins captured on amine-coupled anti-His antibody (about 300 RU); rhVEGFR2 injected at 50-3.125 ug/ml; multi cycle kinetics, contact 180 s, dissociation 500 s

Substance: rhVEGFR2 (Genescript) (from UniProt P35968 20-764) (receptor)
- Kd: 0.159 nM
- koff: 2.48e-05 s⁻¹
- kon: 156000 M⁻¹ s⁻¹
